Measurements published in patent publication US20110207152A1.

Legend:
[1] = target: native human plasma gelsolin (human) (UniProt P06396); assay: sandwich ELISA on human plasma; detection antibody GS2C4 (HRP), capture antibody GF2D6
[2] = target: native human plasma gelsolin (human) (UniProt P06396); assay: sandwich ELISA on human plasma; detection antibody GS2C4 (HRP), capture antibody GN3E9
[3] = target: native human plasma gelsolin (human) (UniProt P06396); assay: sandwich ELISA on human plasma; detection antibody GS2C4 (HRP), capture antibody GC1C10
[4] = target: F-actin prepared from rabbit muscle actin (rabbit) (UniProt P68135); assay: cell-based or functional assay

native human plasma gelsolin (human), sequence (P06396 28-782 limits assumed): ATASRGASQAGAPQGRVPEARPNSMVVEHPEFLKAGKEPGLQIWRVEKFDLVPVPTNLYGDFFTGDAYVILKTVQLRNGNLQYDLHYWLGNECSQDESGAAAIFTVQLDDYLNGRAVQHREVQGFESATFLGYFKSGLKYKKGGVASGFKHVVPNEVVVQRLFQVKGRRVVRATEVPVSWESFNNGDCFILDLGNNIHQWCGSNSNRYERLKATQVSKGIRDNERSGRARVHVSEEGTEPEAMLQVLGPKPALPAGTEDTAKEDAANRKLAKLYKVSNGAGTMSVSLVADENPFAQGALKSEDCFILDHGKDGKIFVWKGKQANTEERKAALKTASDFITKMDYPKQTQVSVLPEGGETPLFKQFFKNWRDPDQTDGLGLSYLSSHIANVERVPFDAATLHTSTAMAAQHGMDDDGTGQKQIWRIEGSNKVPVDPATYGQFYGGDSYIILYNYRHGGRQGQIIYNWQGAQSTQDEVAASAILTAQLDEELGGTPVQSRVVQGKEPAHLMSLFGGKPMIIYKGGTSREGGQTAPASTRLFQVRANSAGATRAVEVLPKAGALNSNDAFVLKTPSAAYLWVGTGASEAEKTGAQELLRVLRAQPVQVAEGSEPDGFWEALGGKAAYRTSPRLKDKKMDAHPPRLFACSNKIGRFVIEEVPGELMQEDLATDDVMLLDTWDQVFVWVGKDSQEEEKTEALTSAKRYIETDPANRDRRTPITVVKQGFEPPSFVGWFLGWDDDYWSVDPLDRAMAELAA
native human plasma gelsolin, sequence (P06396 28-782 limits assumed): as above

Substance: commercial anti-human gelsolin antibody GS2C4 (Sigma Chemical Co.)
- OD (sandwich ELISA pairing) [1]: 0.013 OD
- OD (sandwich ELISA pairing) [2]: 0.025 OD
- OD (sandwich ELISA pairing) [3]: 0.014 OD

Substance: native human plasma gelsolin (from UniProt P06396 28-782)
- % of F-actin at 0.1 mg/ml gelsolin (F-actin severing assay) [4]: 35%
- % of F-actin at 0.5 mg/ml gelsolin (F-actin severing assay) [4]: 21%
- % of F-actin at 1.0 mg/ml gelsolin (F-actin severing assay) [4]: 12%
